Results on 6 molecules are retold here after patent US20090068103, “APTAMERS LABELED WITH 68GA” (published 2009).

The target of the data set is Tenascin-C (TN-C) (Homo sapiens, UniProt P24821 P24821:23-2201). In words: competition; filter competition vs 1 nM 99mTc-TTA1-MAG2, 2 nM TN-C; TBSMC pH 7.4, 1 mM CaCl2, 1 mM MgCl2, 37 C. The settings on record: tags: none stated; chain copies: 6. The procedure: A competition filter binding assay was carried out in order to determine binding constants (EC₅₀). Samples of 2 nM human TN-C were incubated with 1 nM ^99mTc-TTA1-MAG₂ in TBSMC buffer (20 mM Tris, pH 7.4; 137 mM NaCl; 1 mM CaCl₂; 1 mM MgCl₂) and the binding competed with varying concentrations of unlabeled aptamer (see pipetting scheme in FIG. 9.1). Incubation was carried out at 37° C. for 15 min. Subsequently, the solutions were pipetted on a Minifold Device equipped with a supported nitrocellulose membrane and Whatman filter paper and were washed with buffer using vacuum. Residual radioactivity on the filter due to tenascin-C bound labeled aptamer was quantified using a Phosphorimager. EC₅₀ values were calculated using GraphPadPrism 3.02 (San Diego, Calif., USA) plotting one-side competition non-linear regression curves.
Sequence of Tenascin-C (TN-C) (P24821 23-2201, one chain of several): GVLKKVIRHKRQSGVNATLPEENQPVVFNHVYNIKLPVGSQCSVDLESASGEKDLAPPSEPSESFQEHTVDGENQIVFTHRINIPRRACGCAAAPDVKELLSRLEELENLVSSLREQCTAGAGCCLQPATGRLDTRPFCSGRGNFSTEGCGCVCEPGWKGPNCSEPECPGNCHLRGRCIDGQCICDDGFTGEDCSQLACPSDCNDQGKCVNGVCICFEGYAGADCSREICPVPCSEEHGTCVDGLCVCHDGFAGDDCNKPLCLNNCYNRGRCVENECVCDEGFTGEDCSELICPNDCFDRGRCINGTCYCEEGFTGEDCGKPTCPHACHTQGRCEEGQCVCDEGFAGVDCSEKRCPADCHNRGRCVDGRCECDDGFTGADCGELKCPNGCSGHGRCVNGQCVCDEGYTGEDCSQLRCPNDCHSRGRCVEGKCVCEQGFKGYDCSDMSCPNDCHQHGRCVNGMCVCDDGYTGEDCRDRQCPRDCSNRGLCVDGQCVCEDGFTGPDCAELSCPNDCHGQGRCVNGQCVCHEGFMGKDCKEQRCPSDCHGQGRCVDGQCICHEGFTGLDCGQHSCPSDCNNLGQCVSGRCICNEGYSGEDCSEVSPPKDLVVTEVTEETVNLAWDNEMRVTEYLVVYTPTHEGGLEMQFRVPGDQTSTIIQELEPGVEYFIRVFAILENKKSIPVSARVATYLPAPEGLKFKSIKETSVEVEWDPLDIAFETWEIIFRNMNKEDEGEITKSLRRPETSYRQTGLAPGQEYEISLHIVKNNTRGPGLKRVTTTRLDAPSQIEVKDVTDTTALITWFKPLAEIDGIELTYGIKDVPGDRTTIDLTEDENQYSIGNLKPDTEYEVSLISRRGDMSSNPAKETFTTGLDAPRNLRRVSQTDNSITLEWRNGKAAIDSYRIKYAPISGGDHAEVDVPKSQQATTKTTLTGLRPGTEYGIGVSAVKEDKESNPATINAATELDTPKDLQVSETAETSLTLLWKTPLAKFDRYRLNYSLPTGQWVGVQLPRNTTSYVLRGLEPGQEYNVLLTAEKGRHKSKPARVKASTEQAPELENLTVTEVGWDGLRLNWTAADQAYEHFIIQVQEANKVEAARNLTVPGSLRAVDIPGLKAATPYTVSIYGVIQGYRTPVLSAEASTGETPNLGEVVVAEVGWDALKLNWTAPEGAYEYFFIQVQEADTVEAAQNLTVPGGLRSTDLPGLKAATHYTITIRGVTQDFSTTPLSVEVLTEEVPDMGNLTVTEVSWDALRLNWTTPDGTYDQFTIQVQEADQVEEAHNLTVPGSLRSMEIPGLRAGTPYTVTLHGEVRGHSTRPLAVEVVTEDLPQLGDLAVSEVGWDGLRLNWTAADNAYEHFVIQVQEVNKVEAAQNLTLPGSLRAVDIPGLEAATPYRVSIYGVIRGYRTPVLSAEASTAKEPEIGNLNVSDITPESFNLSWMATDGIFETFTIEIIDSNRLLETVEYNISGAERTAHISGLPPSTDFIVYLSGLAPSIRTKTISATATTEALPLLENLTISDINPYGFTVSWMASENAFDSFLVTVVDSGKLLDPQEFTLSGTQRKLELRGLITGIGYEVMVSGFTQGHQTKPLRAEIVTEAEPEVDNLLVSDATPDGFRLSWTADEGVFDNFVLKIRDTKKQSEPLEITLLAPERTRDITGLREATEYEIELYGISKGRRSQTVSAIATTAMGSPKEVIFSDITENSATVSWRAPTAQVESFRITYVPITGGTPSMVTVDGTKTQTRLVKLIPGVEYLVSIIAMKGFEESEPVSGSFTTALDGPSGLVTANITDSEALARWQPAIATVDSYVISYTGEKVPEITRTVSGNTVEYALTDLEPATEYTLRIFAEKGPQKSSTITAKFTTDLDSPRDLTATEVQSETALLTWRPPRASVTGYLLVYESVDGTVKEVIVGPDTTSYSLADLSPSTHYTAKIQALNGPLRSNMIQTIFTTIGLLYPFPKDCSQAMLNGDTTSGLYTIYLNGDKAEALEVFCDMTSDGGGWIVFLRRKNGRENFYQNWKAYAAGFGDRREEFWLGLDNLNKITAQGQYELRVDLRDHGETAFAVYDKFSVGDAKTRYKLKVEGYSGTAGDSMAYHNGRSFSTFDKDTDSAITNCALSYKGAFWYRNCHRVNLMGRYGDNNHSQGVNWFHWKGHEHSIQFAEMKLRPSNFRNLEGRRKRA

For orientation: EC50 means the concentration needed to bring the measured effect to its halfway point. Higher therefore signals lower potency in that assay.

B1: TTA4 (ssRNA)
RNA: GGGAGGACGCGUCGCCGUAAUGGAUGUUUUGCUCCC
modifications: mGmGmG mAmGG mAfCmG-(CH2CH2O)6-fCGfU fCGfC fCGfU mAmAfU mGmGmA fUmGfU fUfUfU mGfCfU fC(C6-NH2)CfC (m=2'-OMe, f=2'-F); 3'-3'-T cap
The molecule B1 had a concentration giving a half-maximal response (EC50) of 20 nM.

B2: TTA8 (ssRNA)
RNA: B1 RNA
modifications: mGmGmG mAmGmG mAfCrG-(CH2OCH2)6-fCGfU fCGfC fCGfU mAmAfU mGmGmA fUmGfU fUfUfU mGmCmU mCmCmC-(CH2)6NH2-3' (m=2'-OMe, f=2'-F, r=ribo)
The molecule B2 showed a half-maximal effective concentration (EC50) of 14 nM.

B3: TTA7 (ssRNA)
RNA: B1 RNA
modifications: LGLGLG LALGmG mAfCrG-(CH2OCH2)6-fCGfU fCGfC fCGfU mAmAfU mGmGmA fUmGfU fUfUfU mGLCLU LCLCLC-(CH2)6NH2-3' (m=2'-OMe, f=2'-F, L prefix as printed, LNA inferred, r=ribo)
As for B3, the 50% effective concentration (EC50) is 2 nM.

B4: TTA3 (ssRNA)
RNA: GGGAGGACGCGUCGCCGUAAUGGAUGUUUUGCUCCCUG
modifications: 5'-NH2-C6; mGmGmG mAmGG mAfCmG-(CH2CH2O)6-fCGfU fCGfC fCGfU mAmAfU mGmGmA fUmGfU fUfUfU mGfCfU fCfCfC UG (m=2'-OMe, f=2'-F); 3'-3'-T cap
B4 registered an EC50 of 19 nM.

B5: TTA6 (ssRNA)
RNA: B4 RNA
modifications: 5'-NH2-C6-O-SPO-O (PS linkage); mGmGmG mAmGG mAfCmG-(CH2CH2O)6-fCGfU fCGfC fCGfU mAmAfU mGmGmA fUmGfU fUfUfU mGfCfU fCfCfC fUmG (m=2'-OMe, f=2'-F); 3'-3'-T cap
Molecule B5 returned an EC50 of 14 nM.

B6: TTA5 (ssRNA)
RNA: TAGGGAGGACGCGUCGCCGUAAUGGAUGUUUUGCUCCCUG
modifications: 5'-(aminomodifier C2 dT)-mA mGmGmG mAmGG mAfCmG-(CH2CH2O)6-fCGfU fCGfC fCGfU mAmAfU mGmGmA fUmGfU fUfUfU mGfCfU fCfCfC fUmG (m=2'-OMe, f=2'-F); 3'-3'-T cap
B6 showed an EC50 of 39 nM.
